Like-named read-outs stand apart in the source and are kept apart here.
Experiments:
[1] = biological target: T1, human CD3 expressed on cells (Jurkat cells; human T-cells of PBMC) (human, UniProt P09693 23-182; P20963 22-164); assay: FACS titration on Jurkat cells, monovalent 1-arm antibody
T1 construct: whole, on cells; Native CD3 on the cell surface; also called hPBMC
Protocol: (§1) FACS data was acquired using the following protocol: Cells at 2×10⁵ per well were incubated with serially diluted antibodies for 30 min on ice. Post incubation, cells were washed and secondary antibody was added and incubated for an additional 30 minutes. After incubation, cells were washed, re-suspended in cold PBS containing 1% BSA and analyzed by flow cytometry with viable Jurkat cells gated by side and forward scatters. The EC₅₀s for cell binding titration were determined using Prism software with values calculated using a 4-parameter non-linear regression analysis.

[2] = biological target: T1, human CD3 expressed on cells (Jurkat …); assay: cell-based or functional assay
[3] = biological target: T1, human CD3 expressed on cells (Jurkat …); assay: cell-based or functional assay; remark: listed apart in the source
[4] = biological target: cynomolgus monkey CD3 expressed on monkey T-cells (PBMCs) (cynomolgus monkey, UniProt Q95LI5 22-198; Q95LI8 22-171); assay: cell-based or functional assay
[5] = biological target: T1, human CD3 expressed on cells (Jurkat …); assay: FACS titration on Jurkat cells (CD3+ human T-cell line)
Protocol: as §1

[6] = biological target: T1, human CD3 expressed on cells (Jurkat …); assay: cell-based or functional assay; remark: listed apart in the source
[7] = biological target: T1, human CD3 expressed on cells (Jurkat …); assay: cell-based or functional assay; remark: listed apart in the source

Sequence of cynomolgus monkey CD3 expressed on monkey T-cells (PBMCs) (Q95LI5 22-198, chain 1 of 2): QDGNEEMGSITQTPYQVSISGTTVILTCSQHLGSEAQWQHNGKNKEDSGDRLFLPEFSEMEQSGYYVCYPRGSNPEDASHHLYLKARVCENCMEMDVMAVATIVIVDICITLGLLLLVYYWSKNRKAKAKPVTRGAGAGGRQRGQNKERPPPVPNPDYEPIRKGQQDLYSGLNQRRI
Sequence of cynomolgus monkey CD3 expressed on monkey T-cells (PBMCs) (Q95LI8 22-171, chain 2 of 2): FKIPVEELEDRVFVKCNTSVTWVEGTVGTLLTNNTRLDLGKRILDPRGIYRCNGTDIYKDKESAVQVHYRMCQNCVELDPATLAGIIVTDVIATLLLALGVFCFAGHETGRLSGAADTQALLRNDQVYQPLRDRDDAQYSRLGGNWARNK
T1 sequence (chain, as listed by the source, chain 1 of 4): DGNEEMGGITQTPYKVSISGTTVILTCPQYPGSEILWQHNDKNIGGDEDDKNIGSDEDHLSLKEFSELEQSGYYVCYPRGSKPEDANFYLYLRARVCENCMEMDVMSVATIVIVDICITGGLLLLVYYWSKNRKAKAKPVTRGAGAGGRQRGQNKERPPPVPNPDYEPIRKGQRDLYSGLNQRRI
T1 sequence (chain, as listed by the source, chain 2 of 4): as the sequence (Q95LI8 22-171, chain 2 of 2) above, with V5I, K15N, V20I, T32S, N33D, N34I, A64T, N74S, L83V, R141H counted along it
T1 sequence (P09693 23-182, chain 3 of 4): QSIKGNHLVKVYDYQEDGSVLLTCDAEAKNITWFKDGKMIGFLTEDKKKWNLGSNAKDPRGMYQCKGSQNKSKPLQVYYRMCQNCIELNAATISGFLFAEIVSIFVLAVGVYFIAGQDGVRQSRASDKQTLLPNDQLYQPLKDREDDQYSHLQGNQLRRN
T1 sequence (P20963 22-164, chain 4 of 4): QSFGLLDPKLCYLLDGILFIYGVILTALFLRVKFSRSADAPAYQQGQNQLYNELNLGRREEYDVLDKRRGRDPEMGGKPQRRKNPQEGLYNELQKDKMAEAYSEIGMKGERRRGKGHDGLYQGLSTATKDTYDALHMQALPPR

| EC50 [1] | EC50 [M] hPBMC Proliferation [2] | EC50 [M] mfPBMC Proliferation [4] | EC50 [5] | EC50 [M] hPBMC Proliferation [7] | Binder | U937 Cytotoxicity Human T-cells [3] | U937 Cytotoxicity Human T-cells [6] |
| --- | --- | --- | --- | --- | --- | --- | --- |
| 0.937 nM | 1.07e-12 M | 6.75e-11 M | – | – | H1H7223P (antibody, human IgG1, V domains shown, Monovalent 1-arm format: second Fab removed, only the Fc portion (CH2-CH3) expressed; human IgG1 Fc; tied by the numerical identifier; also called H1H7223B) VH: QVQLVESGGGLVQPGRSLRLSCAASGFTFADYTMHWVRQAPGKGLEWVSDISWNSGSMGYADSVKGRFTISRDNAKKSLYLQMNSLRTEDTALYYCAKDGSGYGKYFFYAMDVWGQGTTVTVSS VL: not shown | 5.3 pM | – |
| 3.24 nM | 1.64e-12 M | 4.97e-13 M | – | – | H1H7203P (antibody, human IgG1, V domains shown, Monovalent 1-arm format: second Fab removed, only the Fc portion (CH2-CH3) expressed; human IgG1 Fc; tied by the numerical identifier; also called H1H7203B) VH: EVQLVQSGGGLVQPGRSLRLSCAASGFTFADYTMHWVRQTPGKGLEWVSGISWNSGSKDYADSVKGRFTISRDNAKNSLYLQMNSLRTEDTALYYCAKYGSGYGRYFFYAMDVWGQGTTVTVSS VL: not shown | 5.47 pM | – |
| 0.795 nM | 9.52e-13 M | 2.26e-11 M | – | – | H1H7226P (antibody, human IgG1, V domains shown, Monovalent 1-arm format: second Fab removed, only the Fc portion (CH2-CH3) expressed; human IgG1 Fc; tied by the numerical identifier; also called H1H7226B) VH: EVQLVQSGGGLVQPGRSLRLSCAASGFTFSDYTMHWVRQGPGKGLEWVSDISWNSGSKGYTDSVKGRFTISRDNAKKSLYLQMNSLRAEDTALYYCVKDGSGYGKYHFYAMDVWGQGTLVTVSS VL: not shown | 10.4 pM | – |
| 1.5 nM | 1.03e-12 M | 4.9e-11 M | – | – | H1H7232P (antibody, human IgG1, V domains shown, Monovalent 1-arm format: second Fab removed, only the Fc portion (CH2-CH3) expressed; human IgG1 Fc; tied by the numerical identifier; also called H1H7232B) VH: EVQLVESGGGLVHPGRSLRLSCAASGFTFDDYTMHWVRQAPGKGLEWVSDISWNSGSRGYADSVKGRFTISRDNAENSLYLQMNSLRAEDTALYYCAKDKSGYGHYYYYAMDVWGQGTTVTVSS VL: not shown | 9.96 pM | – |
| 0.715 nM | 7.34e-13 M | 4.35e-12 M | – | – | H1H7233P (antibody, human IgG1, V domains shown, Monovalent 1-arm format: second Fab removed, only the Fc portion (CH2-CH3) expressed; human IgG1 Fc; tied by the numerical identifier; also called H1H7233B) VH: EVQLVESGGGLVQPGGSLRLSCEASGFTFADYTLHWVRQAPGKGLEWVSDISWNSGTRGYADSVRGRFTISRDNAKKSLYLQMNSLRSEDTALYYCVKDGSGYGRYNFYAMDVWGQGTTVTVSS VL: not shown | 11.9 pM | – |
| 0.701 nM | 2.75e-12 M | 2.81e-13 M | – | – | H1H7211P (antibody, human IgG1, V domains shown, Monovalent 1-arm format: second Fab removed, only the Fc portion (CH2-CH3) expressed; human IgG1 Fc; tied by the numerical identifier; also called H1H7211B) VH: EVQLVESGGGLVHPGRSLRLSCTASGFKFADYTMHWVRQAPGKGLEWVSDISWNSGSKGYADSVKGRFTISRDNDKNSLYLQMNSLRGEDTALYYCAKDGSGYGRFHFYAIDVWGQGTTVTVSS VL: not shown | 7.89 pM | – |
| 0.726 nM | 2.55e-12 M | 2.29e-12 M | – | – | H1H7198P (antibody, human IgG1, V domains shown, Monovalent 1-arm format: second Fab removed, only the Fc portion (CH2-CH3) expressed; human IgG1 Fc; tied by the numerical identifier; also called H1H7198B) VH: EVQLVESGGGLVQPGRSLRLSCAASGFTFADYTMHWVRQVPGKGLEWVSDISWNSGSKDYADSVKGRFTISRDNAKNFLYLQMNSLRAEDTALYYCVKYGSGYGKFYFYAMDVWGQGTTVTVSS VL: not shown | 5.21 pM | – |
| 2.29 nM | 1.51e-12 M | 1.26e-11 M | – | – | H1H7204P (antibody, human IgG1, V domains shown, Monovalent 1-arm format: second Fab removed, only the Fc portion (CH2-CH3) expressed; human IgG1 Fc; tied by the numerical identifier; also called H1H7204B) VH: EVQLVESRGALVQPGRSLRLSCAASGFAFNDYTMHWVRQAPGKGLEWVSDISWNSNSKDYADSVKGRFTISRDNAKNSLYLQMNSLRAEDTALYYCVKDGSGYGKFSLYALDVWGQGTTVTVSS VL: not shown | 10.8 pM | – |
| 1.4 nM | 2.6e-12 M | 1.72e-12 M | – | – | H1H7221P (antibody, human IgG1, V domains shown, Monovalent 1-arm format: second Fab removed, only the Fc portion (CH2-CH3) expressed; human IgG1 Fc; tied by the numerical identifier; also called H1H7221B) VH: EVQLVESGGGLVQPGRSLRLSCVASGFTFDDYSMHWVRQAPGKGLEWVSGISWNSGSKDYADSVKGRFTISRDNAKNSLYLQMNSLRAEDTALYYCAKYGSGYGKFYHYGLDVWGQGTTVTVSS VL: not shown | 9.21 pM | – |
| – | – | – | 39.6 nM | 1.07e-11 M | H1H5797B (antibody, human IgG1, V domains shown, H1H: human IgG1 Fc) VH: QVQLVQSGTEVKKPGASVKVSCKASGYTFTGYYMHWVRQAPGQGLEWMGWINPNSDVTNYAQKFQGRVTLTRDTSISTAYIDLSRLRSDDTAIYYCARMGDGAVFDYWGQGTLVTVSS VL: DIQMTQSPSSLSASVGDRVTITCRASQRISSYLNWYQQKPGKAPKVLISVASSLQSGVPSRFSGSGSGTDFTLTISSLQPEDFASYYCQQSYNTPLTFGGGTKVEIKR | – | 576 pM |
| – | – | – | 15.5 nM | 1.09e-12 M | H1H5801B (antibody, human IgG1, V domains shown, H1H: human IgG1 Fc) VH: QVQLVQSGGGVVQPGGSLRLSCAASGFTFDDYAMHWVRQAPGKGLEWVSLISGDGGSTYYADSVKGRFTISRDNSKNSLYLQMNSLRTEDTALYYCAKDDSSSSWYYYYYGMDVWGRGTTVTVSS VL: DIQMTQSPSSLSASVGDRVTITCRASQRISSYLNWYQQKPGKAPKVLISVASSLQSGVPSRFSGSGSGTDFTLTISSLQPEDFASYYCQQSYNTPLTFGGGTKVEIKR | – | 92.3 pM |
| – | – | – | 5.57 nM | 2.59e-12 M | H1H5798B (antibody, human IgG1, V domains shown, H1H: human IgG1 Fc) VH: QVQLVQSGGGLVKPGGSLRLSCAASGFTFSSYDMSWVRQAPGKGLEWVSYISSSGNTIHYADSVKGRFTISRDNSKNSLYLQMNSLRAEDTAVYYCAKAGPATVTRRYYYYYGLDVWGQGTTVTVSS VL: DIVMTQSPSSLSASVRDRVTITCRASQRISSYLNWFQQKPGKAPKVLIYTASSLQNGVPSRFSGSGSGTDFTLTISSLQPEDFATYYCQQSYRTPLTFGGGTKVEIKR | – | 181 pM |
| 51.9 nM | 1.46e-12 M | 7.02e-12 M | – | – | H1H7208P (antibody, human IgG1, V domains shown, Monovalent 1-arm format: second Fab removed, only the Fc portion (CH2-CH3) expressed; human IgG1 Fc; tied by the numerical identifier; also called H1H7208B) VH: QVQLVESGGGLVHPGRSLRLSCAASGFKFDDYTMHWVRQAPGKGLEWVSDISWNSGSKGYADSVKGRFTISRDNAKDSLYLQMDSLRAADTAFYYCAKDKSGYGHFYYYAMDVWGQGTTVTVSS VL: not shown | 45.9 pM | – |
| – | – | – | 2.04 nM | 3.09e-12 M | H1H5795B (antibody, human IgG1, V domains shown, H1H: human IgG1 Fc) VH: EVQLVESGAEVKKPGASVKVSCKTSGYSFIGYYIHWMRQAPGQGLEWMGWINPKSGVTNYAQRFQGRVTMTRDTSISTAYMELSRLKSDDTAVYFCARMGDGAVFDFWGQGTLVTVSS VL: DIQLTQSPSSLSASVGDRVTITCRASQRISSFLNWYQQKPGKVPKLLIYTASNLQNGVPSRFSGTGSGTDFTLTISSLQPEDFATYYCQQSYRTPLTFGGGTKVDIKR | – | 67.4 pM |
| 1.95 nM | 1.15e-12 M | – | – | – | H1H7269P (antibody, human IgG1, V domains shown, Monovalent 1-arm format: second Fab removed, only the Fc portion (CH2-CH3) expressed; human IgG1 Fc; tied by the numerical identifier; also called H1H7269B) VH: QVQLVESGGGLVQPGRSLRLSCAASGFKFDDYTMHWVRQGPGKGLEWVSDISWSGGSIDYTDSVKGRFSISRDNAKNSLYLQMNSLRVEDTALYYCVKDKSGYGKYSYGLDVWGQGTTVTVSS VL: not shown | 10.8 pM | – |
| 1.83 nM | 2.13e-12 M | 1.38e-11 M | – | – | H1H7242P (antibody, human IgG1, V domains shown, Monovalent 1-arm format: second Fab removed, only the Fc portion (CH2-CH3) expressed; human IgG1 Fc; tied by the numerical identifier; also called H1H7242B) VH: EVQLVESGGGLVQPGRSLRLSCAASGFTFDDYTMHWVRQGPGKGLEWVSDIGWNSNSIGYADSVKGRFTISRDNAKNSLYLQMNSLRPEDTALYFCVKDKSGYGKFFIGLDVWGQGTMVTVSS VL: not shown | 7.5 pM | – |
| 1.09 nM | 2.8e-12 M | 8.88e-11 M | – | – | H1H7254P (antibody, human IgG1, V domains shown, Monovalent 1-arm format: second Fab removed, only the Fc portion (CH2-CH3) expressed; human IgG1 Fc; tied by the numerical identifier; also called H1H7254B) VH: EVQLVESGGGVVQPGRSLRLSCAASGFKFDGYTMHWVRQGPGKGLEWVSDIGWNSNTIGYADSVKGRFTISRDNAKNSLYLQMNSLRPEDTALYFCVKDKSGYGKFFIGLDVWGQGTMVTVSS VL: not shown | 4.18 pM | – |
| 1.37 nM | 2.43e-12 M | 7.27e-11 M | – | – | H1H7250P (antibody, human IgG1, V domains shown, Monovalent 1-arm format: second Fab removed, only the Fc portion (CH2-CH3) expressed; human IgG1 Fc; tied by the numerical identifier; also called H1H7250B) VH: QVQLVESGGGLVQPGRSLRLSCAASGFTFDDYTMHWVRQGPGKGLEWVSDIGWNSNTKGYADSVKGRFTISRDNAKNSLYLQMNSLRPEDTALYFCVKDKSGYGKFFIGLDVWGQGTMVTVSS VL: not shown | 5.91 pM | – |
| 1.01 nM | 1.05e-12 M | 2.05e-11 M | – | – | H1H7241P (antibody, human IgG1, V domains shown, Monovalent 1-arm format: second Fab removed, only the Fc portion (CH2-CH3) expressed; human IgG1 Fc; tied by the numerical identifier; also called H1H7241B) VH: EVQLVESGGGLVQPGRSLRLSCAASGFTFADYTMHWVRQGPGKGLEWVSDIGWNSNTIGYADSVKGRFAISRDNAKNSLYLQMNSLRPEDTALYYCVKDKSGYGKFQYGLDVWGQGTTVTVSS VL: not shown | 12.3 pM | – |
| 1.45 nM | 1.3e-12 M | 1.83e-11 M | – | – | H1H7251P (antibody, human IgG1, V domains shown, Monovalent 1-arm format: second Fab removed, only the Fc portion (CH2-CH3) expressed; human IgG1 Fc; tied by the numerical identifier; also called H1H7251B) VH: EVQLVESGGGLVQPGRSLRLSCAASGFTFADYTMHWVRQGPGTGLEWVSDIGWSGGSLGYADSVKGRFTISRDNAKNSLYLEMNNLRPEDTALYYCVKDKSGYGKFQYGLDVWGQGTTVTVSS VL: not shown | 1.81 pM | – |
